From patent publication US20240294622A1 (SUZHOU TRANSCENTA THERAPEUTICS, published 2024) come the findings set out here.

The target in assay [1] is T1, HGREM1-His (ACRO) (human, UniProt O60565 25-184).
T1 construct: Lys25-Asp184 of NP_037504 with C-terminal polyhistidine tag (ACRO GR1-H52H3); they are put here; also called hGREM1 (ACRO); human gremlin (ACRO)
T1 sequence: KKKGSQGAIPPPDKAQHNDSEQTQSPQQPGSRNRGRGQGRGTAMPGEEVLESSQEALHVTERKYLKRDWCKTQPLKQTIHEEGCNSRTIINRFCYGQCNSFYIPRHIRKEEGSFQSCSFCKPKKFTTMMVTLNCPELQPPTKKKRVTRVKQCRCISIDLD
The assay can be described thus: blocking ELISA, Human Gremlin-1 binding to BMP2; column OD450. As to the method:
(§1) In addition, the ability of serial dilutions of antibodies provided herein to block Gremlin binding to human BMP2/4/7 was also examined via ELISA. Plates were coated with recombinant human BMP2/4/7 (0.5 μg/ml) overnight and then serial dilutions of antibodies were incubated with 1 μg/ml of human Gremlin-his modified for 1 h at RT before this complex was added to coated plates and allowed to incubate for an additional hour at RT. The plates were then washed and added with anti-his HRP (GenScript). Plates were then developed with a TMB solution and stopped by adding stop solution. The plates were read on a plate reader at 450 nm. […] The chimeric anti-gremlin 1 antibodies (69H5-chi) and chimeric anti-gremlin 1 antibodies (22F1-chi) also can inhibit the binding of gremlin to BMP2 and BMP4 (see, FIG. 3E and FIG. 3F). The chimeric anti-gremlin 1 antibodies (56C11-chi) can inhibit the binding of gremlin to BMP2 (see, FIG. 3E).
On the technique in general: In an ELISA, binding on a coated surface is turned into a signal by an enzyme label.

Assay [2] has as its target T1, HGREM1-His (ACRO). Nature of the assay: blocking ELISA, Human Gremlin-1 binding to BMP4; column OD450. As to the method:
as §1

In assay [3] the target is T1, HGREM1-His (ACRO). Nature of the assay: competition ELISA on captured human gremlin (Acro,0.5ug/ml), upper panel: hybridoma 14E3 titrated against a fixed amount of chimeric 22F1-C, bound chimeric antibody detected. As to the method: Epitope binning of anti-gremlin hybridoma antibodies were performed using a competition ELISA assay. Clear polystyrene plates (BEAVER) were coated with 100 μl/well of a 0.5 μg/ml hGREM1 (ACRO) in high pH coating buffer overnight at 4° C. Then the plates were washed once on an automatic plate washer using PBS+0.1% Tween 20 (Sigma). 100 μl of block solution consisting of PBS+1% BSA+1% normal goat serum+0.05% Tween 20 (Sigma) was added to each well and incubated at room temperature for 2 hours. Then 50 μl/well of 20 μg/ml saturated antibodies (hybridoma antibodies) in antibody dilution buffer (PBS+1% BSA+1% normal goat serum+0.01% Tween 20) were then added to each well of the plate and incubate for 1 hour. Then add 50 μl/well of 40 ng/ml competitive antibodies (chimeric antibodies, e.g., 14E3-C, 22F1-C, 56C11-C, and 69H5-C) to each well of the plate and incubate for another 1 hour at room temperature. […] The plates were read on a plate reader at 450 nm. The failure of the second antibody to bind in the presence of saturating quantities of the first antibody indicates the two antibodies were in the same epitope bin; the success of the second antibody to bind in the presence of the saturating quantities of the first antibody indicates the two antibodies were in different epitope bins. […]
The amount of chimeric antibody bound to gremlin were determined.

In assay [4] the target is T2, human COCO (R&D) (human, UniProt Q8N907 23-189, limits assumed).
T2 sequence (looked up): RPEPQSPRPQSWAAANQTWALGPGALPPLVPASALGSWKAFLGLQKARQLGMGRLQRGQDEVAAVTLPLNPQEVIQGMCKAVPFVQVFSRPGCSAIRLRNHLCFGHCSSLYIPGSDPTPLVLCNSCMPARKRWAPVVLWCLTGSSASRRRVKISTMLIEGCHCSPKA
The assay can be described thus: ELISA on coated human COCO (R&D, 0.5ug/ml), anti-mouse IgG-HRP. As to the method:
In addition, the specificity of the binding of 14E3 and a benchmark antibody was assessed with ELISA. Briefly, clear polystyrene plates (BEAVER) were coated with 100 μl/well of a […] hGREM1 (ACRO), or human gremlin-2 (R&D), human COCO (R&D) and human DAN protein (R&D) in high pH coating buffer overnight at 4° C. Then the plates were washed once on an automatic plate washer using PBS+0.1% Tween 20 (Sigma). 100 μl of block solution consisting of PBS+1% BSA+1% normal goat serum+0.5% Tween 20 (Sigma) was added to each well and incubated at room temperature for 2 hours. Then 100 ul of antibodies in antibody dilution buffer containing PBS+1% BSA+1% normal goat serum+0.01% Tween 20 starting from 2 μg/ml and then 5 fold serial dilution were added to each well of the plate and incubated for 1 hours at room temperature. Afterward the plates were washed three times with 200 ul of PBS+0.1% Tween20 followed by adding 100 μl/well 1:10000 Goat anti mouse IgG-HRP (Abcam), and incubate for 1 hour at room temperature. They were then washed 3× with PBS+0.1% Tween20. Finally, 100 µl/well of TMB (Pierce) was added to each well and after 5 minutes add 50 ul of stop solution to each well. The plates were read on a Multiscan FC microplate reader (Thermo Scientific) at […].

B1: 36F5 (antibody, V domains shown)
VH: QVQLQQSGAELARPGASVKLSCKASGYSFTSSGIGWVKQRSGQGLEWIGEIYPRSGNTYNNEKFKGKATLTADKSSSTVYMELRSLTSEDSAVYFCVREAYSHHYYAMDYWGQGTSVTVFS
VL: DVLMTQTPLSLPVSLGGQASISCRSSQSLLHSNGNTYLEWYLQKPGQSPKLLIYKVSNRFSGVPDRLSGSGSGTDFTLKISRVEAEDLGVYYCFQGSHVPFTFGSGTKLEIN
notes: mouse hybridoma antibody; also called hybridoma 36F5
Regarding B1, the results for the IC50 in assay [1] and in assay [2] were 0.604 µg/mL and 0.512 µg/mL, respectively.

B2: 14E3 (antibody, V domains shown)
VH: QIQLVQSGPELKKPGETVKISCKTSGSTFTTYGMAWMKQAPGKGLTWMGWINTLSGEPTYADDFKGRFAFSLKTSANTAYLQINNLKNEDAATYFCAREPMDYWGQGTSVIVSS
VL: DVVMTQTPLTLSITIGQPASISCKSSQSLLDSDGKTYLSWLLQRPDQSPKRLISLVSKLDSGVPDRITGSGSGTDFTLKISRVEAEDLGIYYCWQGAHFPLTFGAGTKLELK
notes: mouse hybridoma antibody; also called hybridoma 14E3; anti-gremlin1 antibody 14E3
On to B2, for which the “IC50 (read off the curve)” value in assay [3] was approximately 1 µg/mL. In addition, the binding result in assay [4] was “no binding (tested: 1 ug/ml)”.

As usually defined, the IC50 is the concentration needed to halve the response being measured. Low values mean greater potency in that assay, high ones weaker potency in that assay.
